Legend:
D2-14-N1 = test: ELISA
D3-03-N1 = test: ELISA
D3-23-N1 = test: ELISA
D1-10-N1 = test: ELISA
D3-12-N1 = test: ELISA
D3-24-N1 = test: ELISA
D2-14-N1 (human) = test: SPR
Chain of D2-14-N1 (human) (heavy, as listed by the source): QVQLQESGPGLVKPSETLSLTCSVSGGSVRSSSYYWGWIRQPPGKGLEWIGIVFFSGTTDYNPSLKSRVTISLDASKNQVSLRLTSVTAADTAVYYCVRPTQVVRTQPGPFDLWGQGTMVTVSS

| Substance | percent of parent (D2-14-N1) | percent of parent (D3-03-N1) | percent of parent (D3-23-N1) | percent of parent (D1-10-N1) | percent of parent (D3-12-N1) | percent of parent (D3-24-N1) | Kd (D2-14-N1 (human)) |
| --- | --- | --- | --- | --- | --- | --- | --- |
| recombinant full-length IsdB (from UniProt Q2FHV2) Y165R | 3% | 3% | 3% | 3% | 3% | 5% |  |
| recombinant full-length IsdB (natural protein) |  |  |  |  |  |  | 4 to 12 pM |

Reference: paper PMC5120205
